The values that follow come from patent publication US20210268016A1 (YALE UNIVERSITY, published 2021).

This assay concerns the target biotinylated Aβ1-42 oligomers (Aßo) prepared from biotinylated synthetic Aβ1-42 peptide (human). The experiment in a line: biolayer interferometry, biotinylated Aßo on streptavidin sensor.

B1: recombinant full-length human PrP^C (AA23-231) (receptor)
chain: not shown
On to B1, for which the binding result was “binds”.
